From patent US20250034275A1 (CHIA TAI TIANQING PHARMACEUTICAL GROUP, published 2025)

T1: human Trop-2-His (human, UniProt P09758 27-274, limits assumed)
T1 construct: by analogy with the macaque construct it is probably the extracellular domain with a His tag; also called Trop-2-His protein
T1 sequence: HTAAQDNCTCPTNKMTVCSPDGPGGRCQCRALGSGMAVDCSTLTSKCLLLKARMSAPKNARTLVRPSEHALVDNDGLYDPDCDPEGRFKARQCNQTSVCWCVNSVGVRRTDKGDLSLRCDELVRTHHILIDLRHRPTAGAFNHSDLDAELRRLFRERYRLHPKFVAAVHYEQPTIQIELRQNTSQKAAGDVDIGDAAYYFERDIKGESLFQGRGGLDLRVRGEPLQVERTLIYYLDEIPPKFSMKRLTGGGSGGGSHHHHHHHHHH

T2: human Trop-2 (on the surface of human cell lines) (human, UniProt P09758 27-323)
T2 construct: Endogenous Trop-2 on NCI-H322, Capan-1, PC-3, HUVEC, OVCAR-3, HCC38 and HCC1806 cells; also called TACSTD2
T2 sequence: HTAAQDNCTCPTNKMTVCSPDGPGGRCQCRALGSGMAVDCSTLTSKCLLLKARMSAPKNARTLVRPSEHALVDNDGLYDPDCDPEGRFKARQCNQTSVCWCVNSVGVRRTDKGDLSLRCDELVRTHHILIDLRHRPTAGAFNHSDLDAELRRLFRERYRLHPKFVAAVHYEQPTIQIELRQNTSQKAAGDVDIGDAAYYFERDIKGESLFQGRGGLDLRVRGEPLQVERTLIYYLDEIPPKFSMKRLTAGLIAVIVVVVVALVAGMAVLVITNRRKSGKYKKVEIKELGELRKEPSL

T3: Macaque Trop-2-His (macaque, UniProt P09758 27-274 (human entry))
T3 construct: Extracellular domain of macaque Trop-2 recombinantly linked to His; also called monkey Trop-2-His protein; monkey Trop-2
T3 chain: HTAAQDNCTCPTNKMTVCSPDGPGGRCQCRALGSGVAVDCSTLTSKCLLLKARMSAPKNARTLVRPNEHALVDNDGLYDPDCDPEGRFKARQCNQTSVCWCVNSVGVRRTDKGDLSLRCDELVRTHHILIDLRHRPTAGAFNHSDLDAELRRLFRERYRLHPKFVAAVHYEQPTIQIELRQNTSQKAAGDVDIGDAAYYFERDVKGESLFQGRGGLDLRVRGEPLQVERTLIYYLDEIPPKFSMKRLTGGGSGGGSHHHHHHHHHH


Legend:
human Trop-2-His [1] = biological target: T1, human Trop-2-His; assay: SPR (Biacore 8K), antibody captured, Trop-2-His as analyte
Excerpt: The affinity of antibodies for human Trop-2-His was detected in the form of antibody capturing. The antibody was affinity-captured by a CM5 (Cat. #29149603, GE) biosensor chip conjugated with an anti-human IgG antibody (from human antibody capture kit, Cat. #29234600, GE), then the antigen human Trop-2-His flowed on the surface of the chip, and a Biacore 8K instrument was used for detecting reaction signals in real time to obtain association and dissociation curves. After dissociation was completed for each assay cycle, the chip was washed clean and regenerated with a regeneration buffer, 3M MgCl₂ (from human antibody capture kit, Cat. #29234600, GE). The association and dissociation curves were collected by Biacore 8K Control Software 3.0 in real time, and the data were analyzed by Biacore Insight Evaluation Software 3.0. The data were fitted using a Langmuir 1:1 model after double subtraction (namely, in each cycle, the contrast channel signal was subtracted from the experimental channel signal, and the sample signal was subtracted from the blank signal), and the association rate constant Ka, the dissociation rate constant Kd, and the equilibrium constant KD were calculated.

human Trop-2-His [2] = biological target: T1, human Trop-2-His; assay: ELISA, plate-coated human Trop-2-His
Experimental: (§1) After the liquid was discarded, 2% BSA (SIGMA, B2064-100G) diluted with PBS was added at 300 μL/well for blocking, and the mixture was incubated at 37° C. for 2 h. After the blocking was completed, the blocking buffer was discarded, the plate was washed 3 times with PBST buffer (pH 7.4 PBS containing 0.1% tween-20), the antibody solution diluted in a gradient was added at 100 μL/well, and the mixture was incubated at 37° C. for 1 h. After the incubation was completed, the plate was washed 3 times with PBST, the goat anti-human IgG (H+L) (JacksonImmunoResearch, 109-035-098, 1:5000 dilution) was added at 100 μL/well, and the mixture was incubated at 37° C. for 1 h. After the plate was washed 3 times with PBST, a TMB chromogenic substrate (TIANGEN, PA107-01) was added at 100 μL/well. The mixture was incubated at room temperature for 10-15 min, and then 1 M H₂SO₄ was added at 50 μL/well to terminate the reaction. The absorbance values at 450 nm were taken using a microplate reader. The binding curves of antibodies for antigen were fitted using software, and the EC₅₀ values were calculated.

[3] = biological target: T2, human Trop-2 (on the surface of human …); assay: flow cytometry, HCC38 cells
Experimental: (§2) Tumor cells expressing Trop-2 were prepared into a cell suspension (0.5-1×10⁶ cells/mL) using the FACS buffer (Miltenyi Biotec, 130-091-221), and the cell suspension was added to a 96-well V-bottom plate at 100 μL/well. After centrifugation and removal of the supernatant, the test antibodies diluted with the FACS buffer to different concentrations (0.006 nM-100 nM) were each added at 50 μL/well. The mixture was incubated in the dark in a 4° C. refrigerator for 1 h. The plate was then washed 3 times with the FACS buffer by centrifugation at 300 g, and Alexa Fluor 488 goat anti-human IgG (H+L) (Bio-legend, 409304, 1:500 dilution) at working concentration was added. The mixture was incubated in the dark in a 4° C. refrigerator for 40 min. The plate was then washed 3 times with the FACS buffer by centrifugation at 300 g, the geometric mean fluorescence intensity (MFI) was measured on a Sartorius iQue3 flow cytometer, and the binding EC₅₀ values of the antibodies for tumor cells with different Trop-2 expression levels were calculated

[4] = biological target: T2, human Trop-2 (on the surface of human …); assay: cell-based or functional assay
[5] = biological target: T2, human Trop-2 (on the surface of human …); assay: flow cytometry, OVCAR-3 cells
Experimental: as §2

[6] = biological target: T2, human Trop-2 (on the surface of human …); assay: cell-based or functional assay; remark: listed apart in the source
Macaque Trop-2-His = biological target: T3, Macaque Trop-2-His; assay: ELISA, plate-coated macaque Trop-2-His
Experimental: as §1, with “times with the PBST buffer” for “times with PBST buffer”

[7] = biological target: T2, human Trop-2 (on the surface of human …); assay: flow cytometry, HCC1806 cells
Experimental: as §2

Binder | Kd (human Trop-2-His [1]) | koff (human Trop-2-His [1]) | kon (human Trop-2-His [1]) | EC50 (human Trop-2-His [2]) | EC50 [3] | ADCC reporter (Jurkat-CD16a v158-NFAT-luciferase), target cell H322, EC50 [4] | ADCC reporter (Jurkat-CD16a v158-NFAT-luciferase), target cell HCC1806, EC50 [4] | EC50 [5] | EC50 (Macaque Trop-2-His) | EC50 [7] | ADCC, PBMC killing (LDH), H322, EC50 [6] | ADCC, PBMC killing (LDH), H322, Maximum killing (%) [6] | ADCC, PBMC killing (LDH), HCC1806, EC50 [6] | ADCC, PBMC killing (LDH), HCC1806, Maximum killing (%) [6]
hz-Ab35-2.1 (antibody, human IgG1, kappa, V domains shown, Humanized antibody) VH: QVQLVQSGAEVKKPGASVKVSCKASGYTFTSSDINWVRQRPGQGLEWMGWIYPRDGSKKYAQKFQGRVTMTVDTSTSTVYMELSSLRSEDTAVYYCATRFATVVSNYGLDPWGQGTLVTVSS VL: EIVLTQSPATLSLSPGERATLSCSASSSVNYIYWYQRKPGQAPRLLIYDTSNLASGIPARFSGSGSGTDYTLTISSLEPEDFAVYYCQQWNSYPLTFGQGTKVEIKR | 0.444 nM | 0.000194 s⁻¹ | 436000 M⁻¹ s⁻¹ | 0.055 nM | 0.89 nM | 0.1 nM | 0.23 nM | 0.9 nM | 0.056 nM | 0.76 nM | 0.02 nM | 51.3% | 0.03 nM | 35.2%
hz-Ab21-2.2 (antibody, human IgG1, kappa, V domains shown, Humanized antibody) VH: EVQLVESGGGLVKPGGSLRLSCAASGFTLRNYGVHWVRQAPGKGLEWVGVIWSSGTTDYNAAFISRFTISKDNSKNTLYLQMNSLKTEDTAVYYCTRDGDYDYYTMDYWGQGTLVTVSS VL: EIVLTQSPATLSLSPGERATLSCRASKSVSTSAYSYIHWYQQKPGQPPRLLIYLTSNLESGIPARFSGSGSGTDFTLTISSLEPEDFAVYYCQHSRELPYTFGQGTKVEIKR | 1.33 nM | 0.000611 s⁻¹ | 460000 M⁻¹ s⁻¹ | 0.223 nM | 0.66 nM | 0.15 nM | 0.26 nM | 0.8 nM | 0.081 nM | 1.18 nM | 0.07 nM | 51.6% | 0.18 nM | 40.6%

Continued, in another order:

Kd (human Trop-2-His [1]) | koff (human Trop-2-His [1]) | kon (human Trop-2-His [1]) | EC50 (human Trop-2-His [2]) | EC50 [3] | ADCC reporter (Jurkat-CD16a v158-NFAT-luciferase), target cell H322, EC50 [4] | ADCC reporter (Jurkat-CD16a v158-NFAT-luciferase), target cell HCC1806, EC50 [4] | EC50 [5] | EC50 (Macaque Trop-2-His) | EC50 [7] | Binder | ADCC, PBMC killing (LDH), H322, EC50 [6] | ADCC, PBMC killing (LDH), H322, Maximum killing (%) [6] | ADCC, PBMC killing (LDH), HCC1806, EC50 [6] | ADCC, PBMC killing (LDH), HCC1806, Maximum killing (%) [6]
8.82 nM | 0.00357 s⁻¹ | 405000 M⁻¹ s⁻¹ | 0.054 nM | 0.91 nM | 0.11 nM | 0.26 nM | 0.88 nM | 0.05 nM | 0.58 nM | hz-Ab35-2.2 (antibody, human IgG1, kappa, V domains shown, Humanized antibody) VH: QVQLVQSGAEVKKPGASVKVSCKASGYTFTSSDINWVRQRPGQGLEWMGWIYPRDGSKKYNEKFKGRVTMTVDTSTSTVYMELSSLRSEDTAVYYCARRFATVVSNYGLDPWGQGTLVTVSS VL: EIVLTQSPATLSLSPGERATLSCSASSSVNYIYWYQRKPGQAPRLLIYDTSNLASGIPARFSGSGSGTDYTLTISSLEPEDFAVYYCQQWNSYPLTFGQGTKVEIKR | 0.01 nM | 51.4% | 0.02 nM | 35.9%
0.675 nM | 0.000281 s⁻¹ | 416000 M⁻¹ s⁻¹ | 0.065 nM | 0.91 nM | 0.11 nM | 0.21 nM | 0.74 nM | 0.031 nM | 0.61 nM | hz-Ab35-2.3 (antibody, human IgG1, kappa, V domains shown, Humanized antibody) VH: QVQLVQSGAEVKKPGASVKVSCKASGYTFTSSDINWVRQRPGQGLEWMGWIYPRDGSKKYNEKFKGRVTMTVDTSTSTVYMELSSLRSEDTAVYYCATRFATVVSNYGLDPWGQGTLVTVSS VL: EIVLTQSPATLSLSPGERATLSCSASSSVNYIYWYQRKPGQAPRLLIYDTSNLASGIPARFSGSGSGTDYTLTISSLEPEDFAVYYCQQWNSYPLTFGQGTKVEIKR | 0.02 nM | 50.3% | 0.03 nM | 35.7%
